According to PMC11561763:

Molecular target: glutathione S-transferase fusion from pGEX-6P1 possessing a C-terminal optimized tetracysteine motif (GST-TC12)
Assay: SEC; Superdex 75 Increase 10/300, 50 mM Tris pH 7.5, 150 mM NaCl; quenched one-pot ligation mixtures (Ub or SUMO, SrtCrAsH, eSrtA, GST-TC12); peaks collected and analysed by ESI-MS

Sequence of glutathione S-transferase fusion from pGEX-6P1 possessing a C-terminal optimized tetracysteine motif (GST-TC12) (P08515 2-218): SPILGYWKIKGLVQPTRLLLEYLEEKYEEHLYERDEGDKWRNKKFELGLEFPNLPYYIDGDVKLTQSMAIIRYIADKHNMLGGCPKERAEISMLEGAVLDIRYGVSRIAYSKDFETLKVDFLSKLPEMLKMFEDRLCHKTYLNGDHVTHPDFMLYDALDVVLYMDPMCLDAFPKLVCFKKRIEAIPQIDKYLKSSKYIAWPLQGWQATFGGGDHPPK

Question: Which stoichiometry N does the source give for “glutathione S-transferase fusion from pGEX-6P1 possessing a C-terminal optimized tetracysteine motif (GST-TC12) (natural protein)” here?
Answer: 2
